Here are results for one molecule from PMC13354580 (Nature Communications, 2026).

The target of this assay is fluorescent Aβ (1–42) (fluorophore label; fluorophore and position not stated). As to the kind of experiment: fluorescence polarisation. Background: Fluorescence polarisation rises when a labelled molecule tumbles more slowly, as on binding a larger partner.

B1: ABAD Y168G mutant, purified protein (enzyme, human)
chain: MAAACRSVKGLVAVITGGASGLGLATAERLVGQGASAVLLDLPNSGGEAQAKKLGNNCVFAPADVTSEKDVQTALALAKGKFGRVDVAVNCAGIAVASKTYNLKKGQTHTLEDFQRVLDVNLMGTFNVIRLVAGEMGQNEPDQGGQRGVIINTASVAAFEGQVGQAAGSASKGGIVGMTLPIARDLAPIGIRVMTIAPGLFGTPLLTSLPEKVCNFLASQVPFPSRLGDPAEYAHLVQAIIENPFLNGEVIRLDGAIRMQP
B1: the “fold reduction in the calculated Kd against WT” value was about 11 fold.
